Experimental data taken from patent US20230159643A1 (H LUNDBECK A S, published 2023).

Assays:
[1] = biological target: T1, Sortilin SORTECDBAP_hB45678 (human/tetraodon chimera); test: BLI Octet 384RED, antibody on Protein A sensor, Sortilin construct in solution
T1 construct: Shuffle construct
T1 chain: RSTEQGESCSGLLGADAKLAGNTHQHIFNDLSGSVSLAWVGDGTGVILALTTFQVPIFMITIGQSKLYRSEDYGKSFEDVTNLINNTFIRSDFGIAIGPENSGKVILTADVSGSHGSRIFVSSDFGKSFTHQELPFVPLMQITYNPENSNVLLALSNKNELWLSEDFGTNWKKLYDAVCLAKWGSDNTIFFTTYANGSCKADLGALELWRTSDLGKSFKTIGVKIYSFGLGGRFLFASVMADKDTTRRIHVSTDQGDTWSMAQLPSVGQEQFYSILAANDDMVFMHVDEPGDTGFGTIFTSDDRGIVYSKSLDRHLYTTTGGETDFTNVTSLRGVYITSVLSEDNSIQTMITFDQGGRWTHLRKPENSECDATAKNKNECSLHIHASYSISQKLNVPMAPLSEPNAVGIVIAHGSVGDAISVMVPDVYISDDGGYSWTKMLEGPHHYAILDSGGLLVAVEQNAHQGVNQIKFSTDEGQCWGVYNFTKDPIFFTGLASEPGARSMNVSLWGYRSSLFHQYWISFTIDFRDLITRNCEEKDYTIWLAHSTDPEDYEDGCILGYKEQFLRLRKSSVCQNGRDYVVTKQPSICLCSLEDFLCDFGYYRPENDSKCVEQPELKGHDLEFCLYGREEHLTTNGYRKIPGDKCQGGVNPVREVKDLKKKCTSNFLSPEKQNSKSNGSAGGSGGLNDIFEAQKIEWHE
Description: (§1) Binding kinetics of anti-Sortilin HuMab antibodies to Sortilin were determined using Octet 384RED (Fortebio, Menlo Park, USA). HuMab solutions of 2 μg/ml were made by dilution in sample diluent (ForteBio, art. No. 18-5028). Prot A sensors (ForteBio, art. no. 18-0004) were prewetted with kinetics buffer (1:10 sample diluent in PBS) for at least 600 seconds. Subsequently sensors were immobilized with HuMab solution for 600 seconds. A baseline response was obtained by dipping in kinetics buffer for 120 seconds. Association of SORTECD constructs was performed during a 1000 seconds incubation. This was followed by dissociation in kinetics buffer for 100 seconds. After dissociation, sensors were regenerated (10 mM Glycine pH 1.0) and neutralized (kinetics buffer) 3 times for 5 seconds. […] A molecular weight of 76.8 kDA was used for SORTECDHis. Data was fitted with ForteBio Analysis 6.4 software, using a global full fit.

[2] = biological target: T2, Sortilin SORTECDBAP_hB12390 (human/tetraodon chimera); test: as above
T2 construct: Shuffle construct
T2 chain: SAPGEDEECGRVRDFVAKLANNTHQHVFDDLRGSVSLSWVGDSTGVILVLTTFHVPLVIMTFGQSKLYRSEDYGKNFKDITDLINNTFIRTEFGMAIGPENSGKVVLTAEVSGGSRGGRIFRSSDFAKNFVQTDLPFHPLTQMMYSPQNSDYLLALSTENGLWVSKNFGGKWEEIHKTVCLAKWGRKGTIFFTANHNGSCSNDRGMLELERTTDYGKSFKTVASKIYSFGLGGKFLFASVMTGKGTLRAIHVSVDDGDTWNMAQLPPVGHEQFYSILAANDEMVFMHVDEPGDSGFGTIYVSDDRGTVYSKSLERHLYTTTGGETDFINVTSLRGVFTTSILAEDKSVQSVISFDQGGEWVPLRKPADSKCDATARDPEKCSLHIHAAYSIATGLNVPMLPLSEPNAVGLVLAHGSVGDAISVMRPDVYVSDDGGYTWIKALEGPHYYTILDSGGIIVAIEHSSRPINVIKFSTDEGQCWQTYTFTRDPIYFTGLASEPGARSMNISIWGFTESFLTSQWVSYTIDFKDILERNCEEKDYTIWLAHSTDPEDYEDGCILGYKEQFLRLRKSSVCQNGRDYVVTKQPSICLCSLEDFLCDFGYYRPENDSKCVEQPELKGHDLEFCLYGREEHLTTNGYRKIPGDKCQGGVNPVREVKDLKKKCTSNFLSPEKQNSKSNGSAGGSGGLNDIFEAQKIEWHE
Description: as §1

binding result [1]: no binding (tested: 10 µg/ml construct)
EC50 [2]: 0.0123 µg/mL
B1: 1320 (antibody, V domains shown)
VH: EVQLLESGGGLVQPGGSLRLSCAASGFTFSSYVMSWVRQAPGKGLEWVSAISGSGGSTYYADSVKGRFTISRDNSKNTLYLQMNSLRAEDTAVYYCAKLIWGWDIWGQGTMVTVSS
VL: EIVLTQSPATLSLSPGERATLSCRASQSVSSYLAWYQQRPGQAPRLLIYDASNRATGIPARFSGSGSGTDFTLSISSLEPEDFAVYYCQQRTNWSITFGQGTRLEIK
notes: also called IgG1-6003-1320; Antibody 1320
